Here are results for two molecules from PMC11670205 (Frontiers in Immunology, 2024).

Experiment [1] deals with human TSLP receptor complex composed of IL-7Rα and TSLPR expressed on cell surface of transfected HEK293T (human) (UniProt Q9HC73).
Experiment [2] deals with T1, recombinant cynomolgus monkey TSLP (Macaca fascicularis, UniProt A0A7N9CAT7).
T1 construct: thymic stromal lymphopoietin, cynomolgus monkey; source: bought: AcroBiosystems
In words: ELISA; recombinant TSLP coated at 1 μg/mL in DPBS pH 7.2 overnight at 4°C; antibodies in serial 3-fold dilutions from 1 μg/mL, 2 hours at room temperature; HRP anti-human IgG detection. To be noted: both partners purified. A general note: ELISA stands for enzyme-linked immunosorbent assay.

The target in experiment [3] is T2, recombinant mouse TSLP (Mus musculus, UniProt Q9JIE6).
T2 construct: thymic stromal lymphopoietin, mouse; also called murine TSLP; source: bought: AcroBiosystems
Described as above. The settings on record: both partners purified.

T2 sequence (Q9JIE6 20-140): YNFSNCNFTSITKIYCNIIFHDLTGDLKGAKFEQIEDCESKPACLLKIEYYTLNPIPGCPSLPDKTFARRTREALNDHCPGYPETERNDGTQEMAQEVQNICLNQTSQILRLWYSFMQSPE
Chain of human TSLP receptor complex composed of IL-7Rα and TSLPR expressed on cell surface of transfected HEK293T (human) (Q9HC73 23-371, chain 1 of 2): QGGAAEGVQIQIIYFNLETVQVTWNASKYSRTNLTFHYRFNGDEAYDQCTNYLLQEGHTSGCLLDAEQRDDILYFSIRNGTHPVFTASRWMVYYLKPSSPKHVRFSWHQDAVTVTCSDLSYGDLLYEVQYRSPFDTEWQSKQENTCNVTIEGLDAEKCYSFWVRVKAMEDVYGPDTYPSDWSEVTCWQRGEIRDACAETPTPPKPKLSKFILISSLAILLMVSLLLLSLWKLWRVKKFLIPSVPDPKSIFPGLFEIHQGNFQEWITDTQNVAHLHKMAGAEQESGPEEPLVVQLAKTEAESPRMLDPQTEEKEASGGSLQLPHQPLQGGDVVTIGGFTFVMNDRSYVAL
Chain of human TSLP receptor complex composed of IL-7Rα and TSLPR expressed on cell surface of transfected HEK293T (human) (chain, as listed by the source, chain 2 of 2): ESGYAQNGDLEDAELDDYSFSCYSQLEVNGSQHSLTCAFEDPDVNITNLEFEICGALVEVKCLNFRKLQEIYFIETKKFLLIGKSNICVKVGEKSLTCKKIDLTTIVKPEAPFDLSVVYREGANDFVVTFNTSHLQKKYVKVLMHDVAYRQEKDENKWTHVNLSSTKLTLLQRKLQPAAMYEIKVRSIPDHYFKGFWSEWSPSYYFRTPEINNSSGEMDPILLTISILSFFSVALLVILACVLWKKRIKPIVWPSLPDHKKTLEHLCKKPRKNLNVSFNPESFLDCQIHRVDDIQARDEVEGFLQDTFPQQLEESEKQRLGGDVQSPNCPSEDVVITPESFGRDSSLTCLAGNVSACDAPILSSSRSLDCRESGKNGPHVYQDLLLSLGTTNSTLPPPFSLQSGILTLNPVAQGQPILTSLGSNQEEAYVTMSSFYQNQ

With “recombinant human thymic stromal lymphopoietin (from UniProt Q969D9 29-159) (ligand)”, the EC50 of TSLP-driven STAT5 luciferase reporter gene expression in HEK293T cells transfected with TSLPR and IL-7Rα in experiment [1] amounted to 1.1 ng/mL.

B1: tezepelumab analogue antibody (antibody, V domains shown)
VH: QMQLVESGGGVVQPGRSLRLSCAASGFTFRTYGMHWVRQAPGKGLEWVAVIWYDGSNKHYADSVKGRFTITRDNSKNTLNLQMNSLRAEDTAVYYCARAPQWELVHEAFDIWGQGTMVTVSS
VL: SYVLTQPPSVSVAPGQTARITCGGNNLGSKSVHWYQQKPGQAPVLVVYDDSDRPSWIPERFSGSNSGNTATLTISRGEAGDEADYYCQVWDSSSDHVVFGGGTKLTVL
notes: heavy chain of tezepelumab as deposited in PDB 5J13; rest of the heavy chain constant region (hinge, Fc) beyond what the PDB entry holds; light chain of tezepelumab as deposited in PDB 5J13; It was captured by anti-Fc probes and detected with anti-human IgG; also called AMG157; MEDI9929; source: Expi293F, transfected, purified (MabSelect SuRe, desalting column)
For B1, the binding result is “binds” in experiment [2] and “no binding (tested: 1 μg/mL)” in experiment [3].
